Measurements taken from patent publication US20140356359A1 (RINAT NEUROSCIENCE, published 2014).
Substitutions are numbered along the chain they refer to.

What was measured:
[1] = target: full-length cyno GHR on transfected HEK293 cells (cynomolgus monkey); test: cell-based or functional assay
[2] = target: T1, human GHR (as in Tables 1 and 2) (human, UniProt P10912 49-253, limits assumed); test: Biacore, 25 C; 25 C (no asterisk)
T1 sequence: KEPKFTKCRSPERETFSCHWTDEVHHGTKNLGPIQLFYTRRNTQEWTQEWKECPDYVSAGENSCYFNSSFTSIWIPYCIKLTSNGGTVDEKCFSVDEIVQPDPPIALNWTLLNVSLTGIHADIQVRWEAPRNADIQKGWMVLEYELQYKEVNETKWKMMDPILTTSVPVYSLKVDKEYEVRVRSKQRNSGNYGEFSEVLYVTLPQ

[3] = target: T1, human GHR (as in Tables 1 and 2); test: Biacore, Fab, 25 C
[4] = target: T1, human GHR (as in Tables 1 and 2); test: Biacore, Fab, 37 C
[5] = target: T1, human GHR (as in Tables 1 and 2); test: Biacore, IgG2ΔA, 25 C
[6] = target: T2, cyno GHR, his-tagged monomer of amino acids 31-235 of the extracellular domain (cynomolgus monkey, UniProt Q9XSZ1 49-253 (Papio anubis entry)); test: Biacore 2000, antibody captured on anti-human Fc, GHR as analyte, 25 C, replicate
T2 construct: not shown: his tag
T2 chain: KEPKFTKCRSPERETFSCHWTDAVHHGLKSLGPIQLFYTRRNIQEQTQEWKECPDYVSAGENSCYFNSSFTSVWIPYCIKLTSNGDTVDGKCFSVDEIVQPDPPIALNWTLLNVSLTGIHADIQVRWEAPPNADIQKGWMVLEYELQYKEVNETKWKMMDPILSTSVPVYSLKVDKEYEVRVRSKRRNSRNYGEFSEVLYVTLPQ
Description: (§1) An anti-human Fc sensor chip was prepared by activating all flow cells of a Biacore™ CM4 sensor chip with a 1:1 (v/v) mixture of 400 mM ethyl-N-(3-diethylaminopropyl)carbodiimide (EDC, Biacore™) and 100 mM N-hydroxysuccinimide (NHS, Biacore™) for 7 minutes, at a flow rate of 10 μL/min. […] All flow cells were blocked with 100 mM ethylenediamine in 150 mM borate buffer pH 8.5 for 7 minutes at 10 μL/min.
(§2) Antibodies were captured onto downstream flow cells (flow cells 2, 3 and 4) at 4 μg/mL at a flow rate of 10 μL/min for 1 minute. Different antibodies were captured on each flow cell. Flow cell 1 was used as a reference surface. Following capture of antibodies, analyte (buffer, human GHR or cyno GHR) was injected at 30 μL/min on all flow cells for two minutes. […] After the analyte injection, dissociation was monitored for 30 minutes (for the 400 nM GHR cycle) or 30 seconds (all other cycles) followed by regeneration of all flow cells with two 30-second injections of 75 mM phosphoric acid. A 5-membered dilution series of GHR was analyzed using this method, where the top concentration was 400 nM and the dilution factor was 3-fold. Buffer cycles were collected with both 30 minute and 30 second dissociation times for double-referencing purposes. The double-referenced sensorgrams were fit globally to a simple 1:1 Langmuir with mass transport binding model.
(§3) The experiments were performed at 25° C. using a running buffer of 10 mM HEPES, 150 mM NaCl, 0.05% (v/v) Tween-20™, pH 7.4.

[7] = target: T3, human GHR, his-tagged monomer of amino acids 31-235 of the extracellular domain (human, UniProt P10912 49-253); test: as above
T3 construct: not shown: his tag
T3 sequence: T1 sequence
Description: as §1, §2, §3

[8] = target: T2, cyno GHR, his-tagged monomer of amino …; test: Biacore 2000, antibody captured on anti-human Fc, GHR as analyte, 25 C
Description: as §1, §2, §3

[9] = target: T3, human GHR, his-tagged monomer of amino …; test: as above
Description: as §1, §2, §3

[10] = target: T4, hGHR-hFc fusion protein (R&D Systems Catalog#1210-GR) (human, UniProt P10912 19-264); test: Biacore T200, hGHR-hFc captured on anti-human Fc, Fab as analyte, 37 C
T4 construct: bought; also called hGHR/Fc; human GHR/hFc; not shown: human Fc of the bought fusion protein
T4 sequence: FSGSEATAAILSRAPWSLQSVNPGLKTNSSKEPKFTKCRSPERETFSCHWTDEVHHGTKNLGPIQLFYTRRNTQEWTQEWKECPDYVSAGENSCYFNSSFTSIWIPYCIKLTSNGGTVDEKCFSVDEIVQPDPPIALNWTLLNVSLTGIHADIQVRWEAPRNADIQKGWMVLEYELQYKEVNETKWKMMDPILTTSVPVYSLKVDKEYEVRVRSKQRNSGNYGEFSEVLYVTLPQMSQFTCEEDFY
Description: as §1, with “EDC” for “ethyl-N-(3-diethylaminopropyl)carbodiimide (EDC, Biacore™)”, “NHS” for “N-hydroxysuccinimide (NHS, Biacore™)”
The kinetics assay was run using a methodology with varying dissociation times as described in Katsamba et al., supra. […] Flow cell 1 was used as a reference surface. Following capture of hGHR-hFc, analyte (buffer, SS1 Fab or Ab13 Fab) was injected at 30 μL/min on all flow cells for two minutes. After the analyte injection, dissociation was monitored for 30 minutes (400 nM Fab cycle) or 60 seconds (all other cycles) followed by regeneration with two 30-second injections of 75 mM phosphoric acid. A 5-membered dilution series of Fab was analyzed using this method, where the top concentration was 400 nM and the dilution factor was 3-fold. Buffer cycles were collected at both 30 minute and 60 second dissociation times for double-referencing purposes. The double-referenced sensorgrams were fit globally to a simple 1:1 Langmuir with mass transport binding model (with a local Rmax parameter for each flow cell).
(§4) The experiments were performed at 37° C. using a running buffer of 10 mM HEPES, 150 mM NaCl, 0.05% (v/v) Tween-20™, pH 7.4.

[11] = target: T1, human GHR (as in Tables 1 and 2); test: Biacore, 37 C (asterisk)
[12] = target: T2, cyno GHR, his-tagged monomer of amino …; test: Biacore T200, Fab captured on anti-human kappa, GHR as analyte, 37 C
Description: as §1, with “kappa” for “Fc”, “EDC” for “ethyl-N-(3-diethylaminopropyl)carbodiimide (EDC, Biacore™)”, “NHS” for “N-hydroxysuccinimide (NHS, Biacore™)”
(§5) The kinetics assay was run using a methodology with varying dissociation times as described in Katsamba et al., supra. Fabs were captured onto downstream flow cells (flow cells 2, 3 and 4) at 2 μg/mL at a flow rate of 10 μL/min for 2 minutes. Different Fabs were captured on each flow cell. Flow cell 1 was used as a reference surface. Following capture of fabs, analyte (buffer, human GHR or cyno GHR) was injected at 30 μL/min on all flow cells for two minutes. […] A 6-membered dilution series of GHR was analyzed using this method, where the top concentration was 400 nM and the dilution factor was 3-fold. Buffer cycles were collected with both 30 minute and 60 second dissociation times for double-referencing purposes. The double-referenced sensorgrams were fit globally to a simple 1:1 Langmuir with mass transport binding model.
as §4

[13] = target: T3, human GHR, his-tagged monomer of amino …; test: as above
Description: as §1, with “kappa” for “Fc”, “EDC” for “ethyl-N-(3-diethylaminopropyl)carbodiimide (EDC, Biacore™)”, “NHS” for “N-hydroxysuccinimide (NHS, Biacore™)”
as §5, §4

Chain of full-length cyno GHR on transfected HEK293 cells (cynomolgus monkey) (Q9XSZ1 other isoform, or with tags, fused parts or gaps limits assumed): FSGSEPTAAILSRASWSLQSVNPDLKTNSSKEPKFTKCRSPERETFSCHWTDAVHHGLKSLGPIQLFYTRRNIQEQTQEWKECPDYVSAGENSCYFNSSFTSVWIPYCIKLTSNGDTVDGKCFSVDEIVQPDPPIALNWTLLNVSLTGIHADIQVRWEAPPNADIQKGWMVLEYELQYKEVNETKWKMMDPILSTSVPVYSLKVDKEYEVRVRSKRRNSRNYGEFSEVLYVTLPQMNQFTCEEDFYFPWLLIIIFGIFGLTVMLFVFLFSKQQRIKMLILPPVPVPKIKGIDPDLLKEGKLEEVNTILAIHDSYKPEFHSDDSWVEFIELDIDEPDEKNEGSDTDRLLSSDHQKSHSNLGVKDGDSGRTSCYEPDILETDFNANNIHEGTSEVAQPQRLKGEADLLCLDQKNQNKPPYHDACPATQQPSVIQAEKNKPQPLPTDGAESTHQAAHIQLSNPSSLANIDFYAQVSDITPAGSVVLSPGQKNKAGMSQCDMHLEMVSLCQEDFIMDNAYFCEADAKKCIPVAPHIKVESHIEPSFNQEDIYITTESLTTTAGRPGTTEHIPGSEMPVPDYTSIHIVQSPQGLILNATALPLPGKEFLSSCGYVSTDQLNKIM

## human growth hormone (from UniProt P01241 27-217) (ligand)
[1]
  STAT5 phosphorylation, fluorescent signal (Ave); 4.5 nM GH (fluorescent signal): 562
  STAT5 phosphorylation, fluorescent signal (ave); 4.5 nM GH (fluorescent signal): 847

B1: SS4 Fab (Fab, V domains shown)
VH: EVQLVESGGGLVKPGGSLRLSCAASGFTFSDAWMDWVRQAPGKGLEWVAEIRSKANNHATYYAESVKGRFTISRDDSKNTLYLQMNSLKTEDTAVYYCTLYRDYWGQGTLVTVSS
VL: EIVLTQSPGTLSLSPGERATLSCTATSSVSSSYLHWYQQKPGQAPRLLIYSTSNLASGIPDRFSGSGSGTDFTLTISRLEPEDFAVYYCHQYHRSTPTFGGGTKVEIK
notes: Fab
[2]
  Kd: 28.4 nM
[3]
  Kd: 28.4 nM
[4]
  Kd: 124 nM

B2: SS3 hIgG2Δa (antibody, V domains shown)
VH: B1 VH with Y101F
VL: EIVLTQSPGTLSLSPGERATLSCTATSSVSSSYLNWYQQKPGQAPRLLIYSTSNLASGIPDRFSGSGSGTDFTLTISRLEPEDFAVYYCHQYHRFTPTFGGGTKVEIKR
notes: also called SS3 IgG2ΔA
[5]
  Kd: 1.7 nM

B3: SS4 IgG2ΔA (antibody, V domains shown)
VH: B1 VH
VL: B1 VL
notes: IgG2ΔA
[5]
  Kd: 43.1 nM

B4: SS1 hIgG2Δa (antibody, V domains shown)
VH: B1 VH with N57Y, Y101I
VL: B2 VL with F95S
notes: humanized IgG; also called SS1 (replicate)
[6]
  Kd: 1.2 nM
  koff: 0.00011 s⁻¹
  kon: 89000 M⁻¹ s⁻¹
  t 1/2: 1.78 h
[7]
  Kd: 0.8 nM
  koff: 6.4e-05 s⁻¹
  kon: 77000 M⁻¹ s⁻¹
  t 1/2: 3 h
[8]
  Kd: 1.3 nM
  koff: 0.0001 s⁻¹
  kon: 81000 M⁻¹ s⁻¹
  t 1/2: 1.85 h
[9]
  Kd: 1 nM
  koff: 7.7e-05 s⁻¹
  kon: 74000 M⁻¹ s⁻¹
  t 1/2: 2.5 h

B5: SS1 Fab (Fab, V domains shown)
VH: B1 VH with N57Y, Y101I
VL: B1 VL with H35N
notes: Fab
[10]
  Kd: 1 nM
  koff: 0.000359 s⁻¹
  kon: 374000 M⁻¹ s⁻¹
  t 1/2: 0.537 h
[11]
  Kd: 1.56 nM
[12]
  Kd: 3.2 nM
  koff: 0.000576 s⁻¹
  kon: 182000 M⁻¹ s⁻¹
  t 1/2: 0.333 h
[13]
  Kd: 1.6 nM
  koff: 0.000215 s⁻¹
  kon: 138000 M⁻¹ s⁻¹
  t 1/2: 0.895 h
[4]
  Kd: 1.6 nM

B6: TM9 Fab (Fab, V domains shown)
VH: B1 VH with N57Y, Y101I
VL: B1 VL with S95G
notes: Fab
[11]
  Kd: 3.3 nM
[4]
  Kd: 3.3 nM

B7: SS3 Fab (Fab, V domains shown)
VH: B1 VH with Y101F
VL: B1 VL with H35N, S95F
notes: Fab
[11]
  Kd: 1.99 nM
[4]
  Kd: 1.99 nM

B8: TM1 Fab (Fab, V domains shown)
VH: B1 VH with N57Y, Y101I
VL: B1 VL with S32W
notes: Fab
[11]
  Kd: 3.4 nM
[4]
  Kd: 3.4 nM
